Measured values: patent US20230212306A1 (Daiichi Sankyo, published 2023)
Each block holds one binder with its values, some of them ahead of it.

Biological target: T1, human TLR7-Flag-His×6 (human TLR7 variant 2), expressed in Ba/F3 cells together with human Unc93B1-HA×2 (human, UniProt Q9NYK1 27-1049)
T1 construct: Cells were permeabilised with 0.1% saponin before staining; also called hTLR7-Flag-His×6; not shown: Flag-His×6 tag added to the C-terminus
T1 sequence: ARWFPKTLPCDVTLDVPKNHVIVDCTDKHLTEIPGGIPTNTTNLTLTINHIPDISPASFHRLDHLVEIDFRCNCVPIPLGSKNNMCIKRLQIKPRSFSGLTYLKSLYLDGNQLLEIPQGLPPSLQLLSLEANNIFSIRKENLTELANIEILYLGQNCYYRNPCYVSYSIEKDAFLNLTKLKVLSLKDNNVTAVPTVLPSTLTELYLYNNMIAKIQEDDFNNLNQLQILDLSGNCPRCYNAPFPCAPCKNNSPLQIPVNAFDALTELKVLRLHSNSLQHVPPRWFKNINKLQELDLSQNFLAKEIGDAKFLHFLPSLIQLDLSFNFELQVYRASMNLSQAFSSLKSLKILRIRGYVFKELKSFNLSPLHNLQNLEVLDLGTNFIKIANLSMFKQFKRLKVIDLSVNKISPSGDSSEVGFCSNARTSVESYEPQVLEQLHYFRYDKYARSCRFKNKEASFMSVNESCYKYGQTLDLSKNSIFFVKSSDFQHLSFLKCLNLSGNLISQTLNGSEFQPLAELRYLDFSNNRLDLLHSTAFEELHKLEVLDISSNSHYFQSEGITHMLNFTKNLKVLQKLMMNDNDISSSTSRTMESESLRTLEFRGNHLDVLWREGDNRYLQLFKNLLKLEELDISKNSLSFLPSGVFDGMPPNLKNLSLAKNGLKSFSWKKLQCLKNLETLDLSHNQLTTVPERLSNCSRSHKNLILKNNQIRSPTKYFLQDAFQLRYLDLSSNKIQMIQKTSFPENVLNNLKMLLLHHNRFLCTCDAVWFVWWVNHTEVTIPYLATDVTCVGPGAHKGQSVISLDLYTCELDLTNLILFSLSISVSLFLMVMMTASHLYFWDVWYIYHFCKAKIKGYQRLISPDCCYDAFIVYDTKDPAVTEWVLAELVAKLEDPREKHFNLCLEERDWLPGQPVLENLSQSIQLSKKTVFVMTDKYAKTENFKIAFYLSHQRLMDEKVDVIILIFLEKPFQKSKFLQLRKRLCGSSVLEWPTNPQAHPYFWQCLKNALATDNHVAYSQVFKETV
Test: flow cytometry (MFI), antibody dilution series on saponin-permeabilised Ba/F3 cells expressing human TLR7-Flag-His×6/hUnc93B1-HA×2
Description: A Ba/F3 cell line expressing human TLR7-Flag-His×6/hUnc93B1-HA×2 was subjected to membrane permeation with 0.1% Saponin and stained using the dilution series of chimeric AT01 antibody, NB7 antibody, and FAN2 antibody at the antibody concentrations obtained in Example 4, and the secondary antibody, Goat anti-human IgG Fc-PE (eBioscience). The binding activity of each antibody was evaluated by comparing the MFI based on flow cytometry analysis.

- binding result: binds
B1: cAT01 antibody (antibody, human IgG1, V domains shown)
VH: QVQLQQPGAELVKPGASVNLSCKASGYTFTNNWLHWVKQRPGRGLEWIGDIYPSNGRTNYNEQFKTKATLTVDKSSSTAYMQLSSLTSEDSAVYFCARERGYFDYWGQGTALTVSS
VL: DIQMTQSPSSLSTSLGGKVTITCKASQDINKYIAWYQHKPGKGPRLLIHYTSTLQPGIPSRFSGSGSGRDYSFSISNLEPEDIATYYCLQYDYLLTFGAGTKLELKR
notes: Mouse variable regions on human IgG1 / human kappa constant regions; also called chimeric AT01 antibody; AT01 chimeric anti-human TLR7 antibody

- binding result: binds
B2: cNB7 antibody (antibody, human IgG1, V domains shown)
VH: DVQLQESGPGLVKPSQSLSLTCTVTGYSITSDYAWNWIRQFPGNKLEWMGHISYRGNTNYNPSLKSRISITRDTSKNQFFLQLNSVTTEDTATYYCASWNYYGYVDYAMDYWGQGTSVTVSS
VL: DIQMTQTPSSLSASLGDRVTISCRASQDISNYLNWYQQKPDGTVKLLIYYTSRLHSGVPSRFSGSGSGTDYSLTINNLEQEDIATYFCQQGDTFPTFGGGTKLEIKR
notes: Mouse variable regions on human IgG1 / human kappa constant regions; also called chimeric NB7 antibody; NB7 chimeric anti-human TLR7 antibody

- binding result: binds
B3: cFAN2 antibody (antibody, human IgG1, V domains shown)
VH: QVQLKESGPGLVAPSQSLSITCTVSGFSLTGYGVNWVRQPPGKGLEWLGMIWGDGSTDYNSALKSRLSIRKDNSKSQVFLKMNSLQTDDTARYYCARDKGYDGYYYAMDYWGQGTSVTVSS
VL: DIQMTQSPASLSASVGETVTITCRASENIYSYLAWYQQKQGKSPQLLVYDAKTLAEGVPSRFSGSGSGTQFSLKINSLQPEDFGSYYCQHHYGIPYTFGGGTKLEIKR
notes: Mouse variable regions on human IgG1 / human kappa constant regions; also called chimeric FAN2 antibody; FAN2 chimeric anti-human TLR7 antibody
